Measured values as given in article PMC11336091.

Target: T1, BmFoxO (Bombyx mori, UniProt H9BVM3 1-512)
T1 sequence: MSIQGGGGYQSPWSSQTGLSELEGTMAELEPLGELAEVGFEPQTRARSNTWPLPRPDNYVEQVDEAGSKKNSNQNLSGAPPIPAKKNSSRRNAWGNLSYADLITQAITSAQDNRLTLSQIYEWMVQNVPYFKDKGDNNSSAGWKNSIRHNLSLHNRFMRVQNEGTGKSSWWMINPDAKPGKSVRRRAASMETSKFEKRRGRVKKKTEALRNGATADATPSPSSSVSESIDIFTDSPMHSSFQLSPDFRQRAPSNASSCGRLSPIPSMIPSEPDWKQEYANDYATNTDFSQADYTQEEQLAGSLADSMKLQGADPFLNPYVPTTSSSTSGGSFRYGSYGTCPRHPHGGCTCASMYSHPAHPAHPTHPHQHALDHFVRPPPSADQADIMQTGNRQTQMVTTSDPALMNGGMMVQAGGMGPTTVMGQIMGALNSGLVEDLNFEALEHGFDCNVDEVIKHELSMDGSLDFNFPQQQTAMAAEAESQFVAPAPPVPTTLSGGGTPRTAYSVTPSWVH
Test: EMSA

B1: BmOSER1 promoter EMSA probe (dsDNA)
DNA 1: TGTATTAAAAACTTATATAAACTGTGATCT
DNA 2: AGATCACAGTTTATATAAGTTTTTAATACA
B1: binds.
